Experiment [1] addresses T1, MERS-CoV RBD (wild type, amino acids G372-L588, AviTag, Twin Strep tag, 6xHis) (MERS-CoV). Nature of the experiment: ELISA on coated RBD, antibody titrated, anti human IgG OD 405 nm.
Experiment [2] deals with T1, MERS-CoV RBD (wild type, amino acids …). Briefly: human DPP4.
Experiment [3] shares this target. Briefly: ELISA, anti Twin-Strep readout OD 405 nm (the Twin-Strep-tagged RBD is detected).
Experiment [4] has the same target. Nature of the experiment: serum pull-down with RBD coated beads.

The source of these data is patent US20260014245A1 (MAX DELBRUECK CENTRUM F R MOLEKULARE MEDIZIN IN DER …, published 2026).

B1: LCA60 (antibody, V domains shown)
VH: EVQLLESGGGLVKPGGSLRLSCEASGLTFSNVWMSWVRQAPGKGLEWVGRIKRKSEGATTDYGAPVKGRFTLSRDDSKNTVYLQMNSLKIDDTAVYYCSTLTRGGDVWSSSYYFDYWGQGALVTVSS
VL: QSALTQPASVSGSPGQSITISCTGTSSDVGTYDLVSWYQQHPGKSPKLMIYADIKRPSGVSHRFSGSKSGNTASLTISGLQSADEADYYCCLYAGSSTSVIFGGGTKVT
For the molecule B1, the “EC50 (read off the curve)” value in experiment [1] was ~0.03 µg/mL.

B2: D12 (antibody, V domains shown)
VH: EVKLVESGGGLVKPGGSLKLSCAASGFTFSSYAMSWVRQTPEKRLEWVATISSGGTYTYYPDSVKGRFTISRDNAENTLYLQMSSLRSEDTAMYYCVRDGNSMDYWGQGTSVTVSS
VL: DIQMTQTTSSLSASLGDRVTIICRASQDINNYLNWYQKPDGTVKLLIYYTSRLHSGVPSRFSGSGSGSDYSLTISNLEQEDIATYFCQQANTLPPTFGAGTKLELR
As to B2, the 50% effective concentration (EC50 (read off the curve)) in experiment [1] was ~0.04 µg/mL.

B3: recombinant human DPP4 with an N-terminal 8xHis-tag (hDPP4-N'His) (receptor)
chain: HHHHHHHHGGGSGGGSGGGSDSRKTYTLTDYLKNTYRLKLYSLRWISDHEYLYKQENNILVFNAEYGNSSVFLENSTFDEFGHSINDYSISPDGQFILLEYNYVKQWRHSYTASYDIYDLNKRQLITEERIPNNTQWVTWSPVGHKLAYVWNNDIYVKIEPNLPSYRITWTGKEDIIYNGITDWVYEEEVFSAYSALWWSPNGTFLAYAQFNDTEVPLIEYSFYSDESLQYPKTVRVPYPKAGAVNPTVKFFVVNTDSLSSVTNATSIQITAPASMLIGDHYLCDVTWATQERISLQWLRRIQNYSVMDICDYDESSGRWNCLVARQHIEMSTTGWVGRFRPSEPHFTLDGNSFYKIISNEEGYRHICYFQIDKKDCTFITKGTWEVIGIEALTSDYLYYISNEYKGMPGGRNLYKIQLSDYTKVTCLSCELNPERCQYYSVSFSKEAKYYQLRCSGPGLPLYTLHSSVNDKGLRVLEDNSALDKMLQNVQMPSKKLDFIILNETKFWYQMILPPHFDKSKKYPLLLDVYAGPCSQKADTVFRLNWATYLASTENIIVASFDGRGSGYQGDKIMHAINRRLGTFEVEDQIEAARQFSKMGFVDNKRIAIWGWSYGGYVTSMVLGSGSGVFKCGIAVAPVSRWEYYDSVYTERYMGLPTPEDNLDHYRNSTVMSRAENFKQVEYLLIHGTADDNVHFQQSAQISKALVDVGVDFQAMWYTDEDHGIASSTAHQHIYTHMSHFIKQCFSLP
notes: range 38-766
Regarding B3, the Kd in experiment [2] was found to be 7.8 nM.

B4: recombinant mouse DPP4 (mDPP4) (receptor)
chain: SKDEAAADSRRTYSLADYLKSTFRVKSYSLWWVSDFEYLYKQENNILLLNAEHGNSSIFLENSTFESFGYHSVSPDRLFVLLEYNYVKQWRHSYTASYNIYDVNKRQLITEEKIPNNTQWITWSPEGHKLAYVWKNDIYVKVEPHLPSHRITSTGEENVIYNGITDWVYEEEVFGAYSALWWSPNNTFLAYAQFNDTGVPLIEYSFYSDESLQYPKTVWIPYPKAGAVNPTVKFFIVNIDSLSSSSSAAPIQIPAPASVARGDHYLCDVVWATEERISLQWLRRIQNYSVMAICDYDKINLTWNCPSEQQHVEMSTTGWVGRFRPAEPHFTSDGSSFYKIISDKDGYKHICHFPKDKKDCTFITKGAWEVISIEALTSDYLYYISNQYKEMPGGRNLYKIQLTDHTNVKCLSCDLNPERCQYYAVSFSKEAKYYQLGCWGPGLPLYTLHRSTDHKELRVLEDNSALDRMLQDVQMPSKKLDFIVLNETRFWYQMILPPHFDKSKKYPLLLDVYAGPCSQKADASFRLNWATYLASTENIIVASFDGRGSGYQGDKIMHAINRRLGTLEVEDQIEAARQFVKMGFVDSKRVAIWGWSYGGYVTSMVLGSGSGVFKCGIAVAPVSRWEYYDSVYTERYMGLPIPEDNLDHYRNSTVMSRAEHFKQVEYLLIHGTADDNVHFQQSAQISKALVDAGVDFQAMWYTDEDHGIASSTAHQHIYSHMSHFLQQCFSLH
As to B4, the binding result in experiment [3] is “no binding (tested: about 30 ng/µL)”.

B5: circulating mouse DPP4 (from serum) (receptor)
chain: SRRTYSLADYLKSTFRVKSYSLWWVSDFEYLYKQENNILLLNAEHGNSSIFLENSTFESFGYHSVSPDRLFVLLEYNYVKQWRHSYTASYNIYDVNKRQLITEEKIPNNTQWITWSPEGHKLAYVWKNDIYVKVEPHLPSHRITSTGEENVIYNGITDWVYEEEVFGAYSALWWSPNNTFLAYAQFNDTGVPLIEYSFYSDESLQYPKTVWIPYPKAGAVNPTVKFFIVNIDSLSSSSSAAPIQIPAPASVARGDHYLCDVVWATEERISLQWLRRIQNYSVMAICDYDKINLTWNCPSEQQHVEMSTTGWVGRFRPAEPHFTSDGSSFYKIISDKDGYKHICHFPKDKKDCTFITKGAWEVISIEALTSDYLYYISNQYKEMPGGRNLYKIQLTDHTNVKCLSCDLNPERCQYYAVSFSKEAKYYQLGCWGPGLPLYTLHRSTDHKELRVLEDNSALDRMLQDVQMPSKKLDFIVLNETRFWYQMILPPHFDKSKKYPLLLDVYAGPCSQKADASFRLNWATYLASTENIIVASFDGRGSGYQGDKIMHAINRRLGTLEVEDQIEAARQFVKMGFVDSKRVAIWGWSYGGYVTSMVLGSGSGVFKCGIAVAPVSRWEYYDSVYTERYMGLPIPEDNLDHYRNSTVMSRAEHFKQVEYLLIHGTADDNVHFQQSAQISKALVDAGVDFQAMWYTDEDHGIASSTAHQHIYSHMSHFLQQCFSLH
As to B5, the binding result in experiment [4] is given as “no binding”.

A word on the EC50 (read off the curve): it is the concentration at which the effect is half-maximal. Read a low EC50 (read off the curve) as greater potency. By Kd is commonly meant the free concentration of one partner at which half of the binding sites on the other are occupied at equilibrium, for simple one-to-one binding.
